Results from the nanobody polyreactivity screen of Harvey et al. (2022).

assay: yeast display, Sf9 membrane polyspecificity reagent, FACS + sequencing; frameworks hold sequencing errors
Outline: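 A synthetic nanobody library was expressed on Saccharomyces cerevisiae BJ5465 by galactose induction for 36–48 hours. The library was stained for 1 hour at 4 °C with 10% biotinylated, detergent-solubilized Sf9 membrane reagent and enriched with streptavidin microbeads before FACS. Low and high (top ~1%) gates were set on anti-HA fluorescence for expression and streptavidin fluorescence for reagent binding, and each polyreactivity label reflects the gate of origin.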

Sequence	polyreactivity (PSR sort gate)
QDQRVESGGGLVQAGGSLRLSCAASGRTFKGNARGWYRQAPGKERELVAAISKSGGRTYYADSVKARFTISRDNAKNTVYLQMNSLKPEDTAVYYCAVDEGPTIVRFGYSGQGTQVTVSS	high polyreactivity
QVQLVESGGGLVQAGGSLRLSCAASGFTFIKYAMGWYRQAPGKEREFVPTISWNGGNTYYADSVKGRFTISRYNAKNTVYLQMNSLKPEDTAVYYCAARVKYRTRGGTVVSYDYWGQGTQVTVSS	high polyreactivity
QVQLVESGGGLVQAGGSLRLSCAASGSIFEYYAMGWYRQAPGKERELVAAITWSGGSTYYADSVKGRFTISRDNAKNTVYLQMNSLKPEDTAVYYCAKGYYVYGIFHRFGYYWGQGTQVTVSS	high polyreactivity
QVQLVESGGGLVQAGGSLRLSCAASGRILAWYAMGWYRQAPGKEREFVAGITGSVGSTYYADSVKGRFTISRDKAKNTVYLQMNSLKPEDPAVYYCNKDWDRTSGPKHYYWGQGTQVTVSS	low polyreactivity
QVQLVESGGGLVQAGGSLRLSCAASGLTFYLYAMGWYRQAPGKERELVAAITTSGGSTYYADSVKGRFTISRDNAKNTVYLQMNSLKPEDTAVYDCATQGAIRGYGYWGQGTQVTVSS	high polyreactivity
QVQLVESGGGLVQAGGSLRLSCAASGFIFRTYAMGWYRQAPGKERELVAAISGTTGSTYYADSVKGRFTISRDNAKNTVYLQMNSLKPEDTAVYFCAADYYWYIRYEYWGQGSQVTVSS	low polyreactivity
QVQLVESGGGLVQAGGSLRLSCAASGFTFYLYAMGWYRQAPGKERELVAAITWSGGRTYYADSVKGRFTISRDNAKNTVYLQMNSLKPEDTAVYYCAAVVRKQLSAPSDYWGQGTQVTVSS	high polyreactivity
QVQLVESGGGLVQAGGSLRISCAASGRIFPVNAMGWYRQAPGKERELVARISWRGGTYYADSVKGRFTISRDNAKNTVYLQMNSLKPEDTAFYYCAATLASTSYWYHYGYWGQGTQVTVSS	high polyreactivity
QVQLVESGGGLVQAGGSLRLSCAADGFTFYVYAMGWYRQAPGKERELVADISRRGGSTYYADYVKGRFTISRDNEKNHVYLQMNSLKPEDTAVYYCAAQYYGGGTYWYRYGYWGQGTQVTLSS	high polyreactivity
QVQLVESGGGLVQAGGSLRLSCAASGFIFARYAMGWYRQAPGKERELVARITTGDSTYYADSVKGRFTISRDNAKNTVYLQMNSLKPEDTAVYYCAADDNVSVVGLYYWGQGTQVTVSS	low polyreactivity
QVQLVESGGGLVQAGGSLRLSCAASGLTFVYYAMGWYRQAPGKERELVAAISRSGGATYYADSVKGRFTISRDNAKNTVYLQMNSLKPEDTAVYYCAADATKWIGVVTMDYWGQGTQVTVAS	high polyreactivity
QVQLVESGGGLVQAGGSLRLSCAASGRILWYYTMGWYRQAPGKERELVAAISSGGRTHYADSVKGRFTISRDNAKNTVYLQMNSLKPVDTAVYYCAAKYGWGRFNYDYWGQGTQVTVSS	high polyreactivity
QVQLVESGGGLVQAGGSLRLSCAASGRIFTPNAMGWYRQPPGKERELVAAITWSGDNTYADSVKGRFTISRDNAKNTVYLQMNILKPEDTAVYYCAAAYGYGHKKYGYWGQGTQVTVSS	low polyreactivity
QVQLVESGGGLVQAGGSLRLSCAASGSTFHYYAMGWYRQAPGKERELVAAISYSGGRTYYADSVKGRFTISRDNAKNTVYLQMNSLKPEDTAVYYCAARRSRTGRDESWGQGTQVTVSS	high polyreactivity
QGQLVESGGCLVQAGGSLRLSCDASGFIFTSYAMGWYRQAPGQEWELVAVITASGGSTYYADSVKGRFTISRDNAKNTVYLQMNSLKPEDTAVYYCNRYYQSYYGWTGPYGYWGQGTQVTVSS	high polyreactivity
QDQLVESGGGLVQAGGSLRLSCAASGIIYLTYAMGRYRQEPGKERELVATITSGGRTIYADSVKGRFTISLDNAKNTVYLQMNRLKPVDTAVYYCNALRYYHYDYWGQGTQVTVSS	high polyreactivity
QVQLVESGGGLVQAGGSLRLSCAASGSTFTRNAMGWYRQAPGKERELVAVISSRGGRTYYADSVKGRFTISRDNAKNTVYLQMNSLKPEDTAVYYCAARTWVLYTWRSYYEYYYWGQGTQVTVSS	high polyreactivity
QVQLVESGGGLVQAGGSLRLSCAASGFTFFRIYAMGWYRQAPGKERELVAAISRSGSTYADSVKGRFTISRDNAKNTVYLQMNSLKPEDTAVYYCNTTLYADSVWYDYWGQGTQVTVSS	high polyreactivity
QVQLVESGGGLVQAGGSLRLSCAACGIIFEYNAMGWYRQAPGKVRELVASIDSGGSTNYADSVKGRFTISRDNAKNTVYLQKNSLKPEDTAVYYCNADDTTVSPWYYYYQSYYWGQGTQVTVSS	low polyreactivity
QVQLVESGGGLVQAGGSLRLSCAASGSIFRWYAMGWSRQAPGKERQLVAAIRGNGASTYYADSVKGRFTISRDNAKNTVYLQMNSLKPEDTAVYYCAAYPSFYHSQYGYWGQGTQVTVSS	high polyreactivity
QVQLVESGGGLVQAGGSLLLSCAAAGSIFRTYAMGWYRQAPGKERELVAAISRSGSSTYYADSVKGRFTISRDNAKNTVYFQMNSLKPEDTAVYYCAALVRKYGVDYWGQGTQVTVSS	high polyreactivity
QVQLVESGGGLVQAGGSLRLSCAASGSTFSRNAMGWYRQAPGKERELVAAISWRGGRTYYADSVKGRFTISRDNAKNTVYLQMNSLKPEDTAVYYCAAEHKYRYDYWGQGTQVTVSS	low polyreactivity

Sequence	polyreactivity (PSR sort gate)
QVQLVESGAGLVQAGGSLRLSCAASGFTFYRYAMGWYRQAPGKEREFLAAITASGGSTNYADSVKGRFTISRDNAKNTVYLQMNSLKPEDTAVYYCAARQSRDFRYRGFYYWGQGTQVTVSS	high polyreactivity
QVLLQESGGLVQAGCSLRMSCAESGSISTALSMGWYRQAPGKERELVATISDGASTNYADSVKGRFTISRVNAKNTLYLQMNSLKPEDTEVYYCAAQSQYRPDHRYWGQGTKVTVSS	high polyreactivity
QVQLVESGGGLVQAGGSLRLSCAASGRTFGAYAMGWYRQAPGKERELVASISRSGGTTYYADSVKGRFTISRDTAKNTVYLQMNSLKPEDTAVYYCAAQYVRYGHYYWGQATQVTVSS	high polyreactivity
QVQLVESGGGLVQAGGSLRLSCAASGSILYGNDMGWYRQAPGKERELVANITSSDSTYYADSVKGRFTISRDNAKNTVYLQMNSLKPEDTAVYYCASDDVGWGYYVYSYPYDYWGQGTQVNVSS	low polyreactivity
QVQLVESGGGLVQAGGSLRLSCAASGSTFNWNAMRWYRQPPGKERELVAAITSSGARTRYADSVKGRFTISRDNAKNTVYLQMNSLKPEDTAVYYCAAYVYISPSGYYYWGLGTQVTVSS	low polyreactivity
QVQLVESGGGLVQAGGSLRLSCAASGRTFYTNAMGWYRQAPGKERELVASISGSGGSTYYADSVKGRFTISRDNAKNTVYLQMNSLKPEDTAVYYCAADPAPTVEFGKYDYWGQGTQVTVSS	low polyreactivity
QVQLVESGGGLVQAGGSLRLSCAASGSTFYLNAMGSYRQAPGKERELVAAISSGGRTYYADSVKGRFPISRDNAKNTDYLQMNSLKPEDTAVYYCNAVRYLRGAYNYWGQGTQVTVSS	high polyreactivity
QVQLVESGGGLVQAGGSLRLSCAASGRIFRSYAMGWYRQAPGKERELVAAISQRGGRTYYADSVKGRFTISRDNAKNTVYLQMNSLKPEDTAVYYCAKSNPKLGYYYLQGDLYDYWGQGTQVTVSS	low polyreactivity
QVQLVESGGGIVQAGGSLRLSCAASGRNFDVYAMGWYRQAAGKERELVATISSSGVSTSYADSVKGRFTISRDNAKNTVYLQMNSLKPEDSAVYYCARKFLWKGFDYWGQGTQVTVSS	low polyreactivity
QVQHVESGGGLVQAGGSLRLSCAASGSIIRGNCMGWYRQAPGKERELVAAISRSGGRTYYADSVKGRFTFSRDNAKNTVYLQMNSLKPEDTAVYYFAKDRSGSYYNFPEYDYWGQGTQVTVSS	high polyreactivity
QVQLVESGGGLVQAGGSLRLSCAASGSTFRIYAMGLYRQAPGKERELVAAIRRSGGSTYYADSVKGRFTISRDNAKNTVYLQMNSLKPEDTAVYYCAADLYYQAPGYQDRYRHSRYEYWGQGTQVTVSS	high polyreactivity
QVQLQESGGGLVQAGDSQRLSCAASGNIFRFTDMGWYRKAPGKERELVAAINAGSTTYYADSVKGRFTISRDNAKNTVYLQMNSLKPEDTAVYYCAVYYLGSGTFGYWGQGAQVTVSS	high polyreactivity
QDQLVESGGGLVQAGGSLRLSCAASGSIFTSYAMGWYRQAPGKERELVAAITGGDSTNYADSVKGRFTISRDNAKNTVYLQMNSLKPEDTAVYYCNAADPNYFDRDTHYYWGQGTQVTVSS	low polyreactivity
QVQLVESGGGLVQAGGSLRLSCAASGSISYYNAMGWYRQAPGKERELVATITDSGGSTYYADSVKGRFTISRDNAKNTVYLQMNSLKPEDTAVYYWAVDYSEWYSIYEYWGQGTQVTVSS	low polyreactivity
QVQHLESGGGLVQAGGSLRLSCAASAITFDHYAMGWYRQAPGKEREFVAAIDDIGGDTYYPDSVKGRFTSSRDNAKNNVYLQMNSVQPEDTAVYDCNADGEGADSDYEYWGQGNQVTVSS	low polyreactivity
QVQLVESGGGLVQAGGSLRLSCAASGNIYPYYAIGWYRQAPGKERELVAAINAGGGNTYYADSVKGRFTISRDNAKNTVYLQMNSLKPEDTAVYYCAARRVRIYYGSVVWYKYDYWGQGTQVTVSS	high polyreactivity
QVQLVESGGGLVQAGGSLRLSCAASGSIAMGWYRQAPGKERELVATISSSGGSTYYADSVKGRFTISRDNAKNTVYLQMNSLKPEDTAVYYCNTPQYLGPLYSEFDYWGQGTQVTVSS	low polyreactivity
QVQLVESGGGLVQAGGSLRLSCAASGRTFWSYAMGWYRQAPGKERELVATITGRGGSTYYADSVKGRFTISRDNAKNTVYLQMNSLKPEDTAVYYCARSQYSRSPSRMGYWGQGTQVTVSS	high polyreactivity
QVQLVESGGGLVQAGGSLRLSCAASGITFYYYAMGWYRQAPGKERELVAAITVNGGTTYYADSVKGRFTISRDNAKNTVYLQMNSLKPEDTAVYYCNADGTFEYDYWGQGTQVTVSS	low polyreactivity
QVQLVESGGGLVQAGGSLRISCAASGRIFYYNAMGWYRQAPGKERELVAAITSGGSTNYADSVKGRFTISRDNAKNTVYLQMNSLKPEDTAVYYCAADYYYYVAGVHYDYWGQGTQVTVSS	low polyreactivity
QVQLVESGGGIVQAGGSLRLSCAASGRTFGYYAMRWYRQAPGKERELVAAIYWSGGSTRYADSVKGRFTISRDNAKNTVYLQMNSLNPDDTAVYYCAADSWYSFAGVYRVYGEDYWGQGTEVTVSS	low polyreactivity
